Patent US6841385B2, “Transcription factor E2F DNA-binding domain inhibitor peptides and their use” (Topotarget UK Limited, priority 1999, dated 2005)
Each block holds one molecule with its values, some of them ahead of it. Ends that are not written are not given here. Peptide text beside a SMILES is read from it.

Key:
recombinant E2F1 and DP1 = target: T1, recombinant E2F1 and DP1 (Homo sapiens, UniProt Q01094); experiment: Band shift assay with recombinant E2F1 and DP1, B-myb E2F-binding site as probe; settings: for inhibition: SEQ ID NO: 2 Alanine-scanning; for IC50: B-myb E2F-binding site as probe, read-out: IC50, inhibition of DNA binding
T1 construct: Purified E2F1 N1-His (64-301) and DP1 N2-GST (84-249) were incubated at 10 μg/ml; His; made in house; host or cells: E. coli BL21 DE3 (pET28b) for E2F1
T1 sequence (Q01094 64-301): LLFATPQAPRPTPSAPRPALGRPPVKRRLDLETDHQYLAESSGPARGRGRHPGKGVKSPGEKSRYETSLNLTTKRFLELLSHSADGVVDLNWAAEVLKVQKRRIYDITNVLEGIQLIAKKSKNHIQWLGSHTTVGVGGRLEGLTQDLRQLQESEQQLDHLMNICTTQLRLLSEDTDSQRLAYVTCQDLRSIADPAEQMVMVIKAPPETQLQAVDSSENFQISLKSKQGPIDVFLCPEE
T1 sequence (Q14186 84-249 partner): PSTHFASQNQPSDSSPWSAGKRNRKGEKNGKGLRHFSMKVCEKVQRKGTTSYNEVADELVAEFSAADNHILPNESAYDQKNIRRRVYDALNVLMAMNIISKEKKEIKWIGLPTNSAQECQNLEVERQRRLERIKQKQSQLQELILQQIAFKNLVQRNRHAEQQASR
Description: N-terminal fragments of human E2F1 (aa 64-301), E2F2 (aa 69-306), E2F3 (aa 128-356), E2F4 (aa 1-198), E2F5 (aa 42-233) were cloned into bacterial expression vector pET28b (Novagen) and were purified from BL21 DE3 cells by immobilised metal-affinity chromatography. A N-terminal fragment of DP1 (aa 85-249) was expressed as GST fusion protein and purified by glutathione-affinity chromatography.
Purified E2F1 N1-His (64-301) and DP1 N2-GST (84-249) were incubated at 10 μg/ml in a buffer containing 10 mM HEPES, […], 1 mM EDTA, […], 33 mg/ml BSA and 0.1 μg of sonicated salmon sperm for 10 minutes on ice. ^32P-labelled probe was added and the reaction mixture was incubated at room temperature for 20 minutes. Probes were labelled by filling-in 5′ overhanging ends of 4-7 bases. Samples were run on 4% non denaturing polyacrylamide gel in 0.5% TBE at 4° C. Gels were exposed to X-ray films. Nuclear extract (3 μg) was incubated in 17 μl buffer containing 0.3 M NaCl, 0.4 M Tris pH 7.9, 100 mM EDTA, 0.4 M DTT, 13% glycerol, 1 μg of sonicated salmon sperm on ice. The samples were then incubated for 10 minutes at 30° C. and cooled on ice. ^32P-labelled probe was added, the reaction mixtures were incubated for another 10 minutes at 30° C. and then cooled on ice.
• B-myb: (5′-[…]) (SEQ ID NO:16) • NF-Y: 5′-ATTTTTCTGATTTGGTTAA (SEQ ID NO:17) • Spl: 5′-ATGGGGCGGAGA (SEQ ID NO:18) • ATF: 5′-[…] (SEQ ID NO:19) Introduction of Peptides into Mammalian Cells
The inhibitory potential of the peptides on E2F function was analysed in band shift assays with recombinant E2F1 and DP1. […] The IC50 concentrations for the 3 peptides were in the range of 50-100 μM. Inhibition to various extends was also observed using recombinant fragments of E2F2, E2F3, E2F4, E2F5, respectively. Approximately 100-fold lower IC50 values were found with a branched molecule consisting of 4 copies of SEQ ID NO:2 linked by MAP (multiple antigen peptide).

HL60 cells [1] = experiment: Nuclease-laddering assay (DNA laddering) in HL60 cells; assay type: cell-based
Description: Treated cells were collected, washed with PBS, resuspended in lysis buffer (50 mM Tris pH 7.9, 100 mM EDTA, pH 8, 100 mM NaCl, 1% SDS) and 500 μg/ml proteinase K and incubated at 55° C. for 18 h. Cells were then incubated with […] for 1 hour at 37° C., genomic DNA was purified and examined by agarose gel electrophoresis.
(§1) Effects became visible after 5-24 hours defending on the concentration of the peptide.

U2OS (osteosarcoma) = experiment: BrDU proliferation assay, U2OS cells; assay type: cell-based; settings: 24 hrs, dose-dependent
Description: (§2) Four tumor cell lines U2OS (osteosarcoma), C33A (cervical carcinoma), HeLa (cervical carcinoma) and E2F4/ras (derived from primary rat embryo fibroblasts) were treated with the branched peptide MAP-4-SEQ ID NO:2-TAT or mutant control peptide MAP-4-SEQ ID NO:39-TAT for 24 hrs. Cell proliferation was measured using the BrDU proliferation assay from Boehringer Mannheim (Cat No. 1 647 229).

[2] = tested on: E2F4/ras (derived from primary rat embryo fibroblasts); experiment: BrDU proliferation assay, E2F4/ras cells; assay type: cell-based; settings: 24 hrs, dose-dependent
Description: as §2

HL60 cells [3] = experiment: Apoptosis, staining of HL60 cells with Heochst 33342 propidium iodide; assay type: cell-based
Description: as §1

CycA promoter = experiment: Transcription from the CycA promoter, HeLa cells transiently transfected with CycA-Luciferase construct; assay type: cell-based
From the text: This finding is in agreement with the anti-repressor function of E2F in the CycA promoter, (Liu et al, Oncogene (1998), 16, 2957-2963).

HL60 cells [4] = experiment: Growth of HL60 cells treated with peptide; assay type: cell-based; settings: HL60 cells, concentrations between 1-5 μM
Description: (§3) HeLa cells were grown in Dulbecco's Modified Eagle's Medium (DMEM) supplemented with fetal calf serum (FCS) and HL60 cells in RPMI 1640 supplemented with 10% FCS. Cells were treated with peptides in culture medium and incubated overnight before harvesting.
(§4) HeLa, 3T3, W138 cells were treated with varying concentration of MAP-4-SEQ ID NO:2-TAT and a control peptide MAP-4-SEQ ID NO:39-TAT wherein SEQ ID NO:39 is SEQ ID NO:2 but containing 2 alanine substitutions at positions 1 and 4, i.e. AVRAHF (SEQ ID NO:39) DNA replication was analysed by BrdU incorporation after 24 hours.
as §1

[5] = tested on: C33A (cervical carcinoma); experiment: BrDU proliferation assay, C33A cells; assay type: cell-based; settings: 24 hrs, dose-dependent
Description: as §2

HeLa cells = experiment: BrdU incorporation cell proliferation assay, HeLa cells; assay type: cell-based; settings: 24 hrs, dose-dependent
Description: as §3
The peptides were tested in further experiments for their effect on cell cycle progression and cell viability. For this purpose, the peptides were conjugated at their C-terminus to a cell penetrating HIV-Tat derived peptide (aa 48-60) (Fawell et al. (1994) Proc. Natl. Acad. Sci. USA 91, 664-668).
as §4, §2

[6] = target: T2, recombinant E2F1 N1-His (64-301) with DP1 N2-GST (84-249) (human, UniProt Q01094 64-301; Q14186 84-249); experiment: deletion analysis; grade of inhibition of E2F DNA binding (band shift)
T2 construct: range 64-301;range 84-249; Both proteins were incubated together at 10 ug/ml in the band shift assay with a 32P-labelled B-myb E2F-site probe; also called recombinant E2F1 and DP1; not shown: His tag from vector pET28b; GST fusion partner
T2 sequence (Q01094 64-301, chain 1 of 2): as the sequence (Q01094 64-301) above
T2 sequence (Q14186 84-249, chain 2 of 2): as the sequence (Q14186 84-249 partner) above

[7] = target: T2, recombinant E2F1 N1-His (64-301) with …; experiment: alanine scanning; grade of inhibition of E2F DNA binding (band shift)
Description: (§5) Probes were labelled by filling-in 5' overhanging ends of 4–7 bases. Samples were run on 4% non denaturing polyacrylamide gel in 0.5% TBE at 4° C. Gels were exposed to X-ray films. […] The samples were then incubated for 10 minutes at 30° C. and cooled on ice. ^32P-labelled probe was added, the reaction mixtures were incubated for another 10 minutes at 30° C. and then cooled on ice.

[8] = target: E2F4 overexpressed in stable transfected 3T3 cells (nuclear extract) (UniProt Q16254 2-413, limits assumed); experiment: band shift, extract of 3T3 cells overexpressing E2F4; inhibition of DNA binding
E2F4 overexpressed in stable transfected 3T3 cells (nuclear extract), sequence (Q16254 2-413 limits assumed): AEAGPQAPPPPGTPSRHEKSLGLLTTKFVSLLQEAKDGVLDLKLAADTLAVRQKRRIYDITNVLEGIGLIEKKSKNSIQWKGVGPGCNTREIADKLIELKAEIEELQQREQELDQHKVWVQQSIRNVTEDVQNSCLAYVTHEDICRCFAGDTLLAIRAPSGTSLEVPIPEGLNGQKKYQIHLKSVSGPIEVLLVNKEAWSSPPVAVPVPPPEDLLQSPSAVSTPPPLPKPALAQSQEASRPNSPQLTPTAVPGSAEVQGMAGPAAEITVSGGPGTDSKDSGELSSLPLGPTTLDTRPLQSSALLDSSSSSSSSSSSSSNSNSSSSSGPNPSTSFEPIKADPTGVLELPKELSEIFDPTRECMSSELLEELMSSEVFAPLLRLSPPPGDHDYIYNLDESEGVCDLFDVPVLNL
Description: as §5

[9] = target: E2F3 overexpressed in stable transfected 3T3 cells (nuclear extract) (UniProt O00716 1-465, limits assumed); experiment: band shift, extract of 3T3 cells overexpressing E2F3; inhibition of DNA binding
E2F3 overexpressed in stable transfected 3T3 cells (nuclear extract), sequence (O00716 whole entry): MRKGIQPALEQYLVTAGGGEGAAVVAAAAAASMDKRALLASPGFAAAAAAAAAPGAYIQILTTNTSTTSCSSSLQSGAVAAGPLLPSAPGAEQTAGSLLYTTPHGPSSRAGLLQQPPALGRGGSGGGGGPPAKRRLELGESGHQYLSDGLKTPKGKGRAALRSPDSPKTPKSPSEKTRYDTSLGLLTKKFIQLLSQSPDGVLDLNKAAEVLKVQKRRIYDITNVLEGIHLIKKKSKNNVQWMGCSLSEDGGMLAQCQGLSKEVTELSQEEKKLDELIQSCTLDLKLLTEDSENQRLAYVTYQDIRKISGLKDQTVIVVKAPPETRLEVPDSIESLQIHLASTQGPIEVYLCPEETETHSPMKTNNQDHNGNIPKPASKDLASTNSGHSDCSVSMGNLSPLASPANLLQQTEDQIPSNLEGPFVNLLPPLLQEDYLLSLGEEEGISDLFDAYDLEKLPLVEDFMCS
Description: as §5

[10] = target: E2F5 overexpressed in stable transfected 3T3 cells (nuclear extract) (UniProt Q15329 1-346, limits assumed); experiment: band shift, extract of 3T3 cells overexpressing E2F5; inhibition of DNA binding
E2F5 overexpressed in stable transfected 3T3 cells (nuclear extract), sequence (Q15329 whole entry): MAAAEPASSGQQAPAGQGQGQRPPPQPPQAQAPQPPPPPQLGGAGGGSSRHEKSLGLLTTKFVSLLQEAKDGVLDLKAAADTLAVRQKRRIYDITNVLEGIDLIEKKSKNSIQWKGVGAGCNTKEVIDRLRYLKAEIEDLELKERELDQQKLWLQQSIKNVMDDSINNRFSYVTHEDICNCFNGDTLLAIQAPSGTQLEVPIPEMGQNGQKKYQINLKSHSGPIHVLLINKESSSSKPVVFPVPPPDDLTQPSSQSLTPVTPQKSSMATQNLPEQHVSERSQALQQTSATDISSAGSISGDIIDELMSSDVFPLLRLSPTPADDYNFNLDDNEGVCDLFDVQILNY
Description: as §5

[11] = target: E2F in nuclear extracts from F9 embryonal carcinoma cells; experiment: band shift with F9 nuclear extract; inhibition of E2F DNA binding
[12] = target: E2F1 overexpressed in stable transfected 3T3 cells (nuclear extract) (UniProt Q01094 1-437, limits assumed); experiment: band shift, extract of 3T3 cells overexpressing E2F1; inhibition of DNA binding
E2F1 overexpressed in stable transfected 3T3 cells (nuclear extract), sequence (Q01094 whole entry): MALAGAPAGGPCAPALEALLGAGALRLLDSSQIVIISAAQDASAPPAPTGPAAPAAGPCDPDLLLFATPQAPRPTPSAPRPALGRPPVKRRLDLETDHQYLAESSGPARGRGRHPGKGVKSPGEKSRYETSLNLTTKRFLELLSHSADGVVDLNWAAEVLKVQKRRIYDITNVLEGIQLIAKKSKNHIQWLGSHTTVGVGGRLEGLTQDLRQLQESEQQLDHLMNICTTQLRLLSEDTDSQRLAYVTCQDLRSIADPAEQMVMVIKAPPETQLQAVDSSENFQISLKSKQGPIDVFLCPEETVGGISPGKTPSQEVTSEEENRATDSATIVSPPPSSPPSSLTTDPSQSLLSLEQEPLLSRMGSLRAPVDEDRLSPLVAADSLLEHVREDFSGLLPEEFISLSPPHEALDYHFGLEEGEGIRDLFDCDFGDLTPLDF
Description: as §5

[13] = target: E2F2 overexpressed in stable transfected 3T3 cells (nuclear extract) (UniProt Q14209 1-437, limits assumed); experiment: band shift, extract of 3T3 cells overexpressing E2F2; inhibition of DNA binding
E2F2 overexpressed in stable transfected 3T3 cells (nuclear extract), sequence (Q14209 whole entry): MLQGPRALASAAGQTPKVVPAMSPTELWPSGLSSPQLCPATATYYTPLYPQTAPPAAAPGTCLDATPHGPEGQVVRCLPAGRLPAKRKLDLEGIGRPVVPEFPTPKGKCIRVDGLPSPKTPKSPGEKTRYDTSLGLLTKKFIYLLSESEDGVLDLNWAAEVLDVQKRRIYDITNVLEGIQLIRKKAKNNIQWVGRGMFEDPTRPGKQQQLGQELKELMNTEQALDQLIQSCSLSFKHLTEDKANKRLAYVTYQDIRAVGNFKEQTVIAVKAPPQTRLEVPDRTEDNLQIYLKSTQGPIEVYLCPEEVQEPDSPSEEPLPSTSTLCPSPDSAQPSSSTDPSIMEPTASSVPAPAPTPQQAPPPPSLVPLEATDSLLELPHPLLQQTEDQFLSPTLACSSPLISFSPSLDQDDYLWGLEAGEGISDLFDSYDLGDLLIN
Description: as §5

[14] = target: E2F in HeLa cells (nuclear extracts; endogenous E2F in transfected HeLa cells); experiment: band shift with HeLa nuclear extract; inhibition of E2F DNA binding
[15] = target: T2, recombinant E2F1 N1-His (64-301) with …; experiment: alanine scanning; grade of inhibition of E2F DNA binding (band shift); remark: listed apart in the source
Description: as §5

[16] = target: T2, recombinant E2F1 N1-His (64-301) with …; experiment: band shift, recombinant E2F, inhibition of DNA binding
Description: Samples were run on 4% non denaturing polyacrylamide gel in 0.5% TBE at 4° C. Gels were exposed to X-ray films. […] The samples were then incubated for 10 minutes at 30° C. and cooled on ice. ^32P-labelled probe was added, the reaction mixtures were incubated for another 10 minutes at 30° C. and then cooled on ice.

Molecule: WVAWHF [SEQ2-A3]
- inhibition (recombinant E2F1 and DP1): 0

Molecule: WVRWAF [SEQ2-A5]
- inhibition (recombinant E2F1 and DP1): 0

Molecule: MAP-4-SEQ ID NO:39-TAT: control peptide; SEQ ID NO:39 is SEQ ID NO:2 with 2 alanine substitutions at positions 1 and 4, i.e. AVRAHF (not fully specified (N-terminus, C-terminus); also: MAP-4 branched core) [reference compound]
- DNA laddering (HL60 cells [1]): No effects
- inhibition of proliferation (U2OS (osteosarcoma)): not displayed
- inhibition of proliferation [2]: not displayed
- hallmarks of apoptosis after staining (HL60 cells [3]): No effects
- effect on transcription from CycA-Luciferase construct (CycA promoter): No effect
- inhibition of cell proliferation / cell growth (HL60 cells [4]): no inhibitory effects
- inhibition of proliferation [5]: not displayed
- inhibition of proliferation (HeLa cells): not displayed

Molecule: WARWHF [SEQ2-A2]
- inhibition (recombinant E2F1 and DP1): 0

B1: peptide SEQ ID NO:5 (GSRILTFRSGSWYAS) (peptide)
peptide: GSRILTFRSGSWYAS
notes: Synthetic peptide in the band shift assays
- binding result [6]: binds

B2: MAP4-SEQ ID NO:5 (peptide)
peptide: GSRILTFRSGSWYAS
modifications: also: tetravalent MAP core: 4 copies joined by C-terminus to Lys2-Lys-X core
notes: Branched tetravalent peptide on a lysine MAP core
- IC50 [8]: ~30 µM
- IC50 [9]: ~30 µM
- IC50 [10]: ~30 µM
- IC50 [11]: 10 µM
- IC50 [12]: ~30 µM
- IC50 [13]: ~30 µM
- IC50 [14]: 10 µM

B3: peptide SEQ ID NO:2 (WVRWHF) (peptide)
peptide: WVRWHF
notes: as for B1
- binding result [15]: binds
- concentration without inhibition [11]: > 500 µM
- concentration without inhibition [14]: > 500 µM

B4: MAP4-SEQ ID NO:2 (branched molecule consisting of 4 copies of SEQ ID NO:2 linked by MAP, multiple antigen peptide) (peptide)
peptide: WVRWHF
modifications: also: tetravalent MAP core: 4 copies joined by C-terminus to Lys2-Lys-X core
notes: as for B2
- IC50 [8]: ~30 µM
- IC50 [9]: ~30 µM
- fold lower IC50 (against the unbranched peptides) [16]: ~100 fold
- IC50 [10]: ~30 µM
- concentration at which inhibition of E2F-DNA binding was found [11]: 10 to 30 µM
- IC50 [12]: ~30 µM
- IC50 [13]: ~30 µM
- concentration at which inhibition of E2F-DNA binding was found [14]: 10 to 30 µM

Next, values leading:

- IC50 (recombinant E2F1 and DP1): 50 to 100 µM
Molecule: CC(C)[C@H](NC(=O)[C@@H](N)Cc1c[nH]c2ccccc12)C(=O)N[C@@H](CCCNC(=N)N)C(=O)N[C@@H](Cc1c[nH]c2ccccc12)C(=O)N[C@@H](Cc1c[nH]cn1)C(=O)N[C@@H](Cc1ccccc1)C(=O)O [SEQ ID NO:2, WVRWHF] (H-WVRWHF-OH)

- IC50 (recombinant E2F1 and DP1): 50 to 100 µM
Molecule: CC[C@H](C)[C@H](N)C(=O)N[C@@H](Cc1c[nH]c2ccccc12)C(=O)N[C@@H](CC(C)C)C(=O)N[C@@H](CO)C(=O)NCC(=O)N[C@@H](CC(C)C)C(=O)N[C@@H](CO)C(=O)N[C@@H](CCCNC(=N)N)C(=O)NCC(=O)N[C@H](C(=O)N[C@@H](Cc1c[nH]c2ccccc12)C(=O)N[C@H](C(=O)N[C@@H](CO)C(=O)N[C@@H](Cc1ccccc1)C(=O)N1CCC[C@H]1C(=O)O)C(C)C)C(C)C [SEQ ID NO:4, IWLSGLSRGVWVSFP] (H-IWLSGLSRGVWVSFP-OH)

- IC50 (recombinant E2F1 and DP1): 50 to 100 µM
Molecule: CC[C@H](C)[C@H](NC(=O)[C@H](CCCNC(=N)N)NC(=O)[C@H](CO)NC(=O)CN)C(=O)N[C@@H](CC(C)C)C(=O)N[C@H](C(=O)N[C@@H](Cc1ccccc1)C(=O)N[C@@H](CCCNC(=N)N)C(=O)N[C@@H](CO)C(=O)NCC(=O)N[C@@H](CO)C(=O)N[C@@H](Cc1c[nH]c2ccccc12)C(=O)N[C@@H](Cc1ccc(O)cc1)C(=O)N[C@@H](C)C(=O)N[C@@H](CO)C(=O)O)[C@@H](C)O [SEQ ID NO:5, GSRILTFRSGSWYAS] (H-GSRILTFRSGSWYAS-OH)

- binding result [7]: binds
Molecule: GSRILTFRSGSWAAS [SEQ5-A13 (GSRILTFRSGSWAAS)]

- binding result [7]: binds
Molecule: GSAILTFRSGSWYAS [SEQ5-A3 (GSAILTFRSGSWYAS)]

- binding result [15]: binds
Molecule: WVRWAF [SEQ2-A5 (WVRWAF)]

- binding result [15]: binds
Molecule: WVAWHF [SEQ2-A3 (WVAWHF)]

- binding result [15]: binds
Molecule: WARWHF [SEQ2-A2 (WARWHF)]

- IC50 [11]: 100 µM
- IC50 [14]: 100 µM
Molecule: GSRILTFRSGSWYAS [peptide SEQ ID NO:5 (…)]

- binding result [6]: binds
Molecule: RILTFRSGSWYAS [SEQ5-5 (3-15) (RILTFRSGSWYAS)]

- binding result [6]: binds
Molecule: SRILTFRSGSWY [SEQ5-8 (2-13) (SRILTFRSGSWY)]
